Data set [1] is described as follows: in vitro microsomes, NBD-sphingosine + C16:0-CoA, HPLC. To be noted: glycan lost; control: WT CerS6 microsomes.
A short description of data set [2]: in situ 17C-sphingosine labeling, LC/MS of 17C-Sph-C16:0-ceramide. To be noted: glycan lost; control: WT CerS6 in CerS6 KO HCT116.
Data set [3] in a line: Western blot of microsomal fractions. To be noted: glycan lost; control: WT CerS6 microsomes. (A western blot detects proteins with antibodies after separation by electrophoresis.)

B1: ceramide synthase 6 (CerS6): N18A (protein)
parent chain: MAGILAWFWNERFWLPHNVTWADLKNTEEATFPQAEDLYLAFPLAFCIFMVRLIFERFVAKPCAIALNIQANGPQIAPPNAILEKVFTAITKHPDEKRLEGLSKQLDWDVRSIQRWFRQRRNQEKPSTLTRFCESMWRFSFYLYVFTYGVRFLKKTPWLWNTRHCWYNYPYQPLTTDLHYYYILELSFYWSLMFSQFTDIKRKDFGIMFLHHLVSIFLITFSYVNNMARVGTLVLCLHDSADALLEAAKMANYAKFQKMCDLLFVMFAVVFITTRLGIFPLWVLNTTLFESWEIVGPYPSWWVFNLLLLLVQGLNCFWSYLIVKIACKAVSRGKVSKDDRSDIESSSDEEDSEPPGKNPHTATTTNGTSGTNGYLLTGSCSMDD
Take B1: the enzymatic_activity entry in data set [1] was “decreases, N18A CerS6 activity is not statistically different than that of the LacZ microsomes”; in data set [2], “decreases, was approximately equal to that of LacZ expressing cells”. Besides, the expression_or_secretion result in data set [3] was “increases”.
